Results on 28 sequences are retold here after the supplement of paper PMC9170038.

The data set relates to MS2 coat protein. The data set can be described thus: apparent KD of MS2 coat protein; designed switch direction (-1 OFF switch, 1 ON switch): -1; higher = weaker reporter binding. The gist of the method: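 Designed RNA switches sharing common flanks were transcribed on Illumina chips by stalled E. coli RNA polymerase. They were titrated with SNAP-549-labelled MS2 coat protein, from 0.7 or 1.5 nM doubling to 3 µM, in Tris-HCl pH 7.5 buffer with KCl, MgCl2, BSA, DTT, tRNA and Tween-20. Titrations ran without input, with 200 uM small-molecule ligand, or with an oligonucleotide input. The apparent KD of each design is the median over its clusters, after curve-fitting of normalised cluster fluorescence.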

Where [1] appears, read: input ligand: microRNA oligo, concentration not stated.
Setting [2] is: Eterna round: R95, input ligand: FMN 200 uM.
[3] abbreviates: Eterna round: R95, input ligand: microRNA oligo, concentration not stated.
Setting [4] is: Eterna round: R95, input ligand: none.

On to “GUUGUUUAUGUAGGAUAUGCCUGGCGUGCCUUUGCAGAAGGACAUGAGGAUCACCCAUGUAACAUGAGGCUCACCCAUGUCGCG [salish99_ExNG1_r04_109] (Eterna round: R96, puzzle: Exclusion NG 1)”, for which the “apparent KD of MS2 coat protein” value reads like this: (input ligand: FMN 200 uM) 438 nM; under setting [1], 185 nM; (input ligand: none) 277 nM.
For the sequence “GUUUCACAUGAGGAUCACCCAUGUGAGGAUAUAGAUUUGUUAGUCGUAAUUGAUAGAUUUAGAAGGCGCGUGAU [JR_Exc1_Sub002] (Eterna round: R97, puzzle: Exclusion 1)”, the “apparent KD of MS2 coat protein” value came to 27.4 nM (input ligand: FMN 200 uM) and 25.2 nM (input ligand: none).
In the case of “UAACACCGAGGAUAUACAUUUCUCAUAAGGUGCAAAACCGCACAUGAGGAUCACCCAUGUAGAAGGCGGCAAAU [Enrabeange] (puzzle: Exclusion 2)”, the “apparent KD of MS2 coat protein” value is, setting by setting: under setting [2], 32 nM; under setting [3], 10.5 nM; under setting [4], 14.8 nM.
For “UAACAUGUACAAGGAUAUCAGCACGUUUAGUGCUGAGAAGGUGUAACAUGAGGAUCACCCAUGUAGAUCAUUAAUUAAUUAAUU [ENG1/9-B2] (Eterna round: R96, puzzle: Exclusion NG 1)”, the “apparent KD of MS2 coat protein” value by setting is: (input ligand: FMN 200 uM) 244 nM; under setting [1], 120 nM; (input ligand: none) 102 nM.
Turning to “UAAGAGUGAGGAUAUACGUCGCUGGUCUGGAUGGACGCAUGACAUGAGGAUCACCCAUGUAGAAGGCACAAAAC [Enxela Mod 11 - Jieux - Exclusion 2] (Eterna round: R97, puzzle: Exclusion 2)”, the “apparent KD of MS2 coat protein” value is 153 nM (input ligand: FMN 200 uM) and 35 nM (input ligand: none).
Regarding “UAAGAUUAUUGAGGAUAUGGUAAUUUUUAUUAACCAGAAGGCAAACUCAACAUGAGGAUCACCCAUGUAUAAAGGGUAUUAGUU [JR_ExcNG1_Sub096] (Eterna round: R96, puzzle: Exclusion NG 1)”, under setting [1], the “apparent KD of MS2 coat protein” value amounted to 51.2 nM.
Take “UAAGGGUGCGUAGGAUAUCGCGGCCGAAUAAAGCGAGAAGGACGCCCGAAUGGGUCGUCCAACAUGAGGAUCACCCAUGUAAAC [Soerre] (Eterna round: R96, puzzle: Exclusion NG 1)”: the “apparent KD of MS2 coat protein” value reads like this: (input ligand: FMN 200 uM) 140 nM; under setting [1], 36.5 nM; (input ligand: none) 50.2 nM.
Take “UAAGUGUGAGGAUAUGGUAAAGAUAAGAUGAUGAAAGAACUCCAGAAGGCACAUGAGGAUCACCCAUGUAGAUG [JL-ex4-2.11 Jieux mod] (puzzle: Exclusion 4)”: under setting [3], the “apparent KD of MS2 coat protein” value came to 35.3 nM.
In the case of “UAAUAAAGUGUGAGGAUAUGCUGGUCCAUAGAUCAGCAGAAGGCACAUGAGGAUCACCCAUGUAAUAUAUAAAU [Mat - Exclusion 4 - JL Mod - D57] (Eterna round: R96, puzzle: Brourd's mod of Exclusion 4)”, the “apparent KD of MS2 coat protein” value under setting [1] amounted to 23.7 nM.
“UAAUAAAGUGUGAGGAUAUGCUGGUCCAUAGAUCAGCAGAAGGCACAUGAGGAUCACCCAUGUAAUAUAUAAAU [Mat - Exclusion 4 - JL Mod - D57] (puzzle: Brourd's mod of Exclusion 4)”: the “apparent KD of MS2 coat protein” value by setting is: under setting [2], 199 nM; under setting [3], 27.5 nM; under setting [4], 24.5 nM.
In the case of “UAAUAACAAGCGAGAUCCUACAUGAGGAUCACCCAUGUGCUCGUCUUAUAAAGUACUAUCACGAAAGUGAUAGUACA [Mat - Sensor v3 - turn-off var 1 - Eli Mod - D61] (puzzle: Sensor v3, turn-off variant 1)”, the “apparent KD of MS2 coat protein” value by setting is: under setting [2], 17.1 nM; under setting [3], 49.5 nM; under setting [4], 19.2 nM.
For “UAAUAAUAGUGAGGAUAUAGUUAUUAUAAUAUACUAGAAGGUACACAUGAGGAUCACCCAUGUUUUAUAAUUUGUAAUUUAAAU [4th something] (Eterna round: R96, puzzle: Exclusion NG 1)”, under setting [1], the “apparent KD of MS2 coat protein” value turned out to be 18.4 nM.
Consider “UAAUACAAGCAAAGAUCUUACAUGAGGAUCACCCAUGUGCUCGUCUUAUAAAGUACUAUCACGAAAGUGAUAGUACU [Mat - Sensor v3 - turn-off var 1 - Eli Mod - D94] (puzzle: Sensor v3, turn-off variant 1)”, for which the “apparent KD of MS2 coat protein” value under setting [2] was found to be 29.3 nM, the “apparent KD of MS2 coat protein” value under setting [3] came out at 202 nM and the “apparent KD of MS2 coat protein” value under setting [4] was found to be 34.6 nM.
In the case of “UAAUAUCUGAUUCUUGAGAUACAUGAGGAUCACCCAUGUUCACAGGAUAUUGAUUUUAAGAAAAGCAAGAAGGGUGAAUCAUUU [JR_ExcNG3_Sub041] (Eterna round: R96, puzzle: Exclusion NG 3)”, the “apparent KD of MS2 coat protein” value is, setting by setting: (input ligand: FMN 200 uM) 26.9 nM; under setting [1], 16.5 nM; (input ligand: none) 22.9 nM.
For “UAAUGUAUAUAGGAUAUCUAGCUGGAUACAGCUAGAGAAGGAUGUACAUGAGGAUCACCCAUGUAAAUCAGUGA [Ex6/14-B3] (Eterna round: R97, puzzle: Exclusion 6)”, the “apparent KD of MS2 coat protein” value (input ligand: FMN 200 uM) is 206 nM and the “apparent KD of MS2 coat protein” value (input ligand: none) stood at 39.3 nM.
For “UAAUUCGUAGGAUAUACAAAGGGAGAAUGAUUGCGGUCCUGACAUGAGGAUCACCCAUGUAGAAGGAUGAGGGU [Eternabot (L1) Solution 41] (Eterna round: R97, puzzle: Exclusion 2)”, in that order: 91.9 nM and 88.6 nM.
The corresponding values for “UACACCACAUGAGGAUCAAACAUGAGGAUCACCCAUGUAUAACAAGCUUUUUGCUCGUCUUAUAAAUAUGUGGUGUA [Electric Eye 5 - Jieux - Sensor, turn-off variant 1] (Eterna round: R97, puzzle: Sensor, turn-off variant 1)” are 14.2 nM and 14.5 nM.
Take “UACACGGGAGGAUAUACGUAGAUGCAGGUUCGUGUGGUGCUACAUGAGGAUCACCCAUGUAGAAGGCCCAACGU [Mod 4 R3 JL-ex2-2.29] (Eterna round: R97, puzzle: Exclusion 2)”: the “apparent KD of MS2 coat protein” value was 26.3 nM (input ligand: FMN 200 uM) and 23.4 nM (input ligand: none).
As for “UACACGGUAGGAUAUACGUAGAUGCAGGUUCGUGUGGUGCUACAUGAGGAUCACCCAUGUAGAAGGGCCAACGU [Mod 6 R3 JL-ex2-2.29 - Jieux - Exclusion 2] (Eterna round: R97, puzzle: Exclusion 2)”, the “apparent KD of MS2 coat protein” value runs as follows: (input ligand: FMN 200 uM) 15.1 nM; (input ligand: none) 13.1 nM.
The corresponding values for “UACACUGCAUGAGGAUCAAACAUGAGGAUCACCCAUGUAUAGCAAGCUUUUUGCACGUCUUAUAAUUAUGUAGUGUA [Electric Eye 13 - Jieux - Sensor, turn-off variant 1] (Eterna round: R97, puzzle: Sensor, turn-off variant 1)” are 15.1 nM and 16.2 nM.
Turning to “UACAUGAGGAUCACCCAUGUUUUGUCGUGUAUGGUAUUUAUCUAGGAUAUCAAGUUAUUUAUUUAUGAGAAGGAGAAUAUUAAU [JMF's solution 10] (Eterna round: R96, puzzle: Exclusion NG 3)”, the “apparent KD of MS2 coat protein” value is 40 nM (input ligand: FMN 200 uM), 30.7 nM under setting [1] and 37.3 nM (input ligand: none).
For “UACAUGAGGAUCACCCAUGUUUUGUCGUGUAUGGUAUUUAUCUAGGAUAUCAAUCUAAUUAUUUAUGAGAAGGAGAAUAUUAAU [JMF's solution 50] (Eterna round: R96, puzzle: Exclusion NG 3)”, in that order: 47.9 nM, 31.2 nM and 42.4 nM.
The corresponding values for “UACAUGAGGAUCACCCAUGUUUUGUCGUGUAUGGUAUUUAUCUAGGAUAUCAAUCUAUUUAUGUAUGAGAAGGAGAAUAUUAAU [JMF's solution 55] (Eterna round: R96, puzzle: Exclusion NG 3)” are 42.3 nM, 28.9 nM and 41.1 nM.
As to “UACAUGAGGAUCACCCAUGUUUUGUCGUGUAUGGUAUUUAUCUAGGAUAUCAAUUUGGUUAUUUAUGAGAAGGAGAAUAUUAAU [JMF's solution 66] (Eterna round: R96, puzzle: Exclusion NG 3)”, the “apparent KD of MS2 coat protein” value by setting is: (input ligand: FMN 200 uM) 48.9 nM; under setting [1], 31.6 nM; (input ligand: none) 37.2 nM.
In the case of “UACAUGAGGAUCACCCAUGUUUUGUCGUGUAUGGUAUUUAUCUAGGAUAUCAUUUGAUUUAUUUAUGAGAAGGAGAAUAUUAAU [JMF's solution 100] (Eterna round: R96, puzzle: Exclusion NG 3)”, the “apparent KD of MS2 coat protein” value was 34.3 nM (input ligand: FMN 200 uM), 28.1 nM under setting [1] and 29.8 nM (input ligand: none).
“UACAUGAGGAUCACCCAUGUUUUGUCGUGUAUGGUAUUUAUCUAGGAUAUCAUUUUAUUUAGUUAUGAGAAGGAGAAUAUUAAU [JMF's solution 79] (Eterna round: R96, puzzle: Exclusion NG 3)”: the “apparent KD of MS2 coat protein” value under setting [1] was found to be 36.1 nM.
Regarding “UACAUGAGGAUCACCCAUGUUUUGUCGUGUAUGGUAUUUAUCUAGGAUAUCAUUUUAUUUAUUUAUGAGAAGGAGAAUAUUAAU [JMF's solution 6] (Eterna round: R96, puzzle: Exclusion NG 3)”, the “apparent KD of MS2 coat protein” value by setting is: (input ligand: FMN 200 uM) 49.4 nM; under setting [1], 27 nM; (input ligand: none) 37.2 nM.
Consider “UACCGGCGGACCGAAGCUUUUUGCUUGUCUUAUACUACAACAUGAGGAUCACCCAUGUGGUGGUGGUCCGUUGUAGU [JL ViennaUCT Bitein mod 2] (puzzle: Sensor v3, turn-off variant 2)”, for which the “apparent KD of MS2 coat protein” value worked out at 54.4 nM under setting [2], 17.8 nM under setting [3] and 47.3 nM under setting [4].
